Target: hCXCR3 (human) (UniProt P49682)
Assay: cell-based or functional assay

hCXCR3 (human), sequence (P49682 whole entry): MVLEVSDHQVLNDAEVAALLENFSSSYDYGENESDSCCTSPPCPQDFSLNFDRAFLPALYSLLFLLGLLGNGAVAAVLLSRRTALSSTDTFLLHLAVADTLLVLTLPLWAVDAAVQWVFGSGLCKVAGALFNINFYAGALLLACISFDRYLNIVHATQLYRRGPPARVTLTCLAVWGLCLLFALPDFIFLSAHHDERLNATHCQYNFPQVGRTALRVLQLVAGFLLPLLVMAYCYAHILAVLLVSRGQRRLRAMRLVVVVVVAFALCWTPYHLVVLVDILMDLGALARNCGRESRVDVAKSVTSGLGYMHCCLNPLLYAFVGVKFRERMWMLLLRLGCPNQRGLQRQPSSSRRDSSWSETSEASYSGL

EC50, agonist activity in an Aequorin assay: 700 pM
B1: recombinant native ITAC (ligand, UniProt O14625 22-94, looked up)
chain: FPMFKRGRCLCIGPGVKAVKVADIEKASIMYPSNNCDKIEVIITLKENKGQRCLNPKSKQARLIIKKVERKNF

— US20180038857A1
